{
  "source": "patent CN110577594A",
  "about": "(UNIV NORTHWEST A&F, dated 2019)",
  "binders": {"B1": {"name": "金黄色葡萄球菌肠毒素A纳米抗体A21 (VHH)", "VHH": "ESGGGSVQAGGSLRLSCAASRNTYSYCSMGWYRQAPGKERELVSSIKSDDRTVYADSVKGRFTISRGNAKNTVHLLMNSLKPEDTAMYYCTFRCLERSGGETRYWGQGTQVTVS", "notes": "also called Clone A21; A21克隆"}},
  "key": {"金黄色葡萄球菌肠毒素B": {"molecular_target": "T1, 金黄色葡萄球菌肠毒素B (Staphylococcus aureus, UniProt P01552 28-266)", "T1 sequence": "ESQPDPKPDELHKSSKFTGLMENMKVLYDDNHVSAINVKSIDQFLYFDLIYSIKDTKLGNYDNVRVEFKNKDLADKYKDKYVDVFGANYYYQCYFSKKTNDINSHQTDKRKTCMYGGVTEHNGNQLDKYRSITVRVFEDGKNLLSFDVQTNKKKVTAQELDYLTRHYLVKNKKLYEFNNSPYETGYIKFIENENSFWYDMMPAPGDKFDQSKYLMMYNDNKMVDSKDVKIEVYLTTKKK", "test": "direct ELISA, antigen coated, HRP-conjugated nanobody"}, "金黄色葡萄球菌表面蛋白A": {"molecular_target": "T2, 金黄色葡萄球菌表面蛋白A (Staphylococcus aureus, UniProt P38507 37-477)", "T2 construct": "whole, on cells; also called 葡萄球菌蛋白A; spA", "test": "direct ELISA on coated whole S. aureus (ATCC25923, ATCC29213, ATCC26111), HRP-conjugated nanobody"}},
  "data": [
    {"binder": "B1", "values": [
      {"measurement": "binding result", "setting": "金黄色葡萄球菌肠毒素B", "value": "no binding (tested: 500ng/mL)"},
      {"measurement": "binding result", "setting": "金黄色葡萄球菌表面蛋白A", "value": "no binding (tested: 10 7 cfu/mL)"}
    ]}
  ]
}
